Test results: US20150344570A1 (published 2015)

B1: GpH7-A5/GpH7-B3 variant E269_07I/GpL16-k0 (antibody, human IgG1, kappa)
heavy 1: not shown
heavy 2: not shown
light: DIVMTQSPLSLPVTPGEPASISCQASESLVHSNRNTYLHWYLQKPGQSPQLLIYKVSNRFSGVPDRFSGSGSGTDFTLKISRVEAEDVGVYYCSQNTHVPPTFGQGTKVEIERTVAAPSVFIFPPSDEQLKSGTASVVCLLNNFYPREAKVQWKVDNALQSGNSQESVTEQDSKDSTYSLSSTLTLSKADYEKHKVYACEVTHQGLSSPVTKSFNRGEC
notes: Heterodimerized anti-glypican-3 IgG1; mutation in the GpH7-B3 chain only; also called He Ab E269I
B2: GpH7-A5/GpH7-B3 variant E269_04F/GpL16-k0 (antibody, human IgG1, kappa)
heavy 1: not shown
heavy 2: not shown
light: B1 light
notes: Heterodimerized anti-glypican-3 IgG1; mutation in the GpH7-B3 chain only; also called He Ab E269F
B3: GpH7-A5/GpH7-B3 variant E269_06M/GpL16-k0 (antibody, human IgG1, kappa)
heavy 1: not shown
heavy 2: not shown
light: B1 light
notes: Heterodimerized anti-glypican-3 IgG1; mutation in the GpH7-B3 chain only; also called He Ab E269M
B4: GpH7-A5/GpH7-B3 variant E269_03V/GpL16-k0 (antibody, human IgG1, kappa)
heavy 1: not shown
heavy 2: not shown
light: B1 light
notes: Heterodimerized anti-glypican-3 IgG1; mutation in the GpH7-B3 chain only; also called He Ab E269V
B5: GpH7-A5/GpH7-B3 variant V266_19Q/GpL16-k0 (antibody, human IgG1, kappa)
heavy 1: not shown
heavy 2: not shown
light: B1 light
notes: He Ab; alteration in one H chain only; also called He Ab
B6: GpH7-A5/GpH7-B3 variant E269_02A/GpL16-k0 (antibody, human IgG1, kappa)
heavy 1: not shown
heavy 2: not shown
light: B1 light
notes: Heterodimerized anti-glypican-3 IgG1; mutation in the GpH7-B3 chain only; also called He Ab E269A
B7: GpH7-A5/GpH7-B3 variant Y300_10E/GpL16-k0 (antibody, human IgG1, kappa)
heavy 1: not shown
heavy 2: not shown
light: B1 light
notes: as for B5
B8: GpH7-A5/GpH7-B3 variant H268_06M/GpL16-k0 (antibody, human IgG1, kappa)
heavy 1: not shown
heavy 2: not shown
light: B1 light
notes: Heterodimerized anti-glypican-3 IgG1; mutation in the GpH7-B3 chain only; also called He Ab H268M
B9: GpH7-A5/GpH7-B3 variant E269_11K/GpL16-k0 (antibody, human IgG1, kappa)
heavy 1: not shown
heavy 2: not shown
light: B1 light
notes: Heterodimerized anti-glypican-3 IgG1; mutation in the GpH7-B3 chain only; also called He Ab E269K
B10: GpH7-A5/GpH7-B3 variant S267_19Q/GpL16-k0 (antibody, human IgG1, kappa)
heavy 1: not shown
heavy 2: not shown
light: B1 light
notes: as for B5
B11: GpH7-A5/GpH7-B3 variant S267_07I/GpL16-k0 (antibody, human IgG1, kappa)
heavy 1: not shown
heavy 2: not shown
light: B1 light
notes: as for B5
B12: GpH7-A5/GpH7-B3 variant S267_03V/GpL16-k0 (antibody, human IgG1, kappa)
heavy 1: not shown
heavy 2: not shown
light: B1 light
notes: as for B5
B13: GpH7-A5/GpH7-B3 variant E269_05P/GpL16-k0 (antibody, human IgG1, kappa)
heavy 1: not shown
heavy 2: not shown
light: B1 light
notes: Heterodimerized anti-glypican-3 IgG1; mutation in the GpH7-B3 chain only; also called He Ab E269P
B14: GpH7-A5/GpH7-B3 variant S267_10E/GpL16-k0 (antibody, human IgG1, kappa)
heavy 1: not shown
heavy 2: not shown
light: B1 light
notes: as for B5
B15: GpH7-A5/GpH7-B3 variant S267_05P/GpL16-k0 (antibody, human IgG1, kappa)
heavy 1: not shown
heavy 2: not shown
light: B1 light
notes: as for B5
B16: GpH7-A5/GpH7-B3 variant H268_14T/GpL16-k0 (antibody, human IgG1, kappa)
heavy 1: not shown
heavy 2: not shown
light: B1 light
notes: Heterodimerized anti-glypican-3 IgG1; mutation in the GpH7-B3 chain only; also called He Ab H268T
B17: GpH7-A5/GpH7-B3 variant E269_18N/GpL16-k0 (antibody, human IgG1, kappa)
heavy 1: not shown
heavy 2: not shown
light: B1 light
notes: Heterodimerized anti-glypican-3 IgG1; mutation in the GpH7-B3 chain only; also called He Ab E269N
B18: GpH7-A5/GpH7-B3 variant E269_16H/GpL16-k0 (antibody, human IgG1, kappa)
heavy 1: not shown
heavy 2: not shown
light: B1 light
notes: Heterodimerized anti-glypican-3 IgG1; mutation in the GpH7-B3 chain only; also called He Ab E269H
B19: GpH7-A5/GpH7-B3 variant S267_15Y/GpL16-k0 (antibody, human IgG1, kappa)
heavy 1: not shown
heavy 2: not shown
light: B1 light
notes: as for B5
B20: GpH7-A5/GpH7-B3 variant V266_16H/GpL16-k0 (antibody, human IgG1, kappa)
heavy 1: not shown
heavy 2: not shown
light: B1 light
notes: as for B5
B21: GpH7-A5/GpH7-B3 variant S267_02A/GpL16-k0 (antibody, human IgG1, kappa)
heavy 1: not shown
heavy 2: not shown
light: B1 light
notes: as for B5

What was measured:
[1] = target: T1, FcγRIa extracellular domain with C-terminal His tag (human, UniProt P12314 16-292); assay: SPR Biacore, antibody captured on antigen-peptide chip, FcγR as analyte
T1 construct: extracellular domain; Soluble receptor used as analyte in Biacore; also called FcgRI; FcgRIa

[2] = target: T2, FcγRIIb extracellular domain with C-terminal His tag (human, UniProt P31994 43-217); assay: as above
T2 construct: extracellular domain; Soluble receptor used as analyte in Biacore; also called FcgRIIb; CD32B
T2 sequence (looked up): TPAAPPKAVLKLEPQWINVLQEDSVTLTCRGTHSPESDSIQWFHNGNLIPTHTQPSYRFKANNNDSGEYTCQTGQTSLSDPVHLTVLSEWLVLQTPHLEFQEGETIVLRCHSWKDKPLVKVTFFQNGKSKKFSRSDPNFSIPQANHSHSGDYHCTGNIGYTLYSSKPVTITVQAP

[3] = target: T3, FcγRIIa H (FcgRIIa type H, His at position 131), extracellular domain with C-terminal His tag (human, UniProt P12318 34-217); assay: SPR (Biacore), relative binding, GpH7-A5/GpH7-B3/GpL16-k0 = 100
T3 construct: extracellular domain; also called 2aH; FcgRIIa H; not shown: His tag at the C terminus
T3 sequence (looked up): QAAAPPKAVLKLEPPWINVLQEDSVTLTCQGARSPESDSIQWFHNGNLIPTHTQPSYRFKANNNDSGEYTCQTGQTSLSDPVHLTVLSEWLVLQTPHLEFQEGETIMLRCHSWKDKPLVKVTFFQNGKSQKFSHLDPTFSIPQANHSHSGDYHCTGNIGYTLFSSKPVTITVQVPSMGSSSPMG

[4] = target: T4, FcγRIIb, extracellular domain with C-terminal His tag (human, UniProt P31994 43-217); assay: as above
T4 construct: extracellular domain; also called 2b; FcgRIIb; not shown: His tag at the C terminus
T4 sequence (looked up): T2 sequence (looked up)

[5] = target: T3, FcγRIIa H (FcgRIIa type H, His at …); assay: SPR; He/Con_2aH divided by He/Con_2b (FcγRIIa H binding over FcγRIIb binding)

T1 sequence (P12314 16-292): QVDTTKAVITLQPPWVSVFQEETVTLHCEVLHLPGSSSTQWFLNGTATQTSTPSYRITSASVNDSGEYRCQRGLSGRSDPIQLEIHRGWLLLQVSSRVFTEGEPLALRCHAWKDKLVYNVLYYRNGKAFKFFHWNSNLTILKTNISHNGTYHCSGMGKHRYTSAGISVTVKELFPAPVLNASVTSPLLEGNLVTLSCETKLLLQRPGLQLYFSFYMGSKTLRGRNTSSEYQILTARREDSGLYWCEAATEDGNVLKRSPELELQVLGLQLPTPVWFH

Binder | He/Con_1a [1] | He/Con_2b [2] | He/Con_2aH [3] | He/Con_2b [4] | He_2aH/2b (IIaH/IIb) [5]
B1 | 103 relative, GpH7-A5/GpH7-B3/GpL16-k0 = 100 | 43.9 relative, GpH7-A5/GpH7-B3/GpL16-k0 = 100 |  |  | 
B2 | 103 relative, GpH7-A5/GpH7-B3/GpL16-k0 = 100 | 45 relative, GpH7-A5/GpH7-B3/GpL16-k0 = 100 |  |  | 
B3 | 104 relative, GpH7-A5/GpH7-B3/GpL16-k0 = 100 | 46.7 relative, GpH7-A5/GpH7-B3/GpL16-k0 = 100 |  |  | 
B4 | 103 relative, GpH7-A5/GpH7-B3/GpL16-k0 = 100 | 45.1 relative, GpH7-A5/GpH7-B3/GpL16-k0 = 100 |  |  | 
B5 |  |  | 46.4 % of control | 89.2 % of control | 0.52 ratio
B6 | 104 relative, GpH7-A5/GpH7-B3/GpL16-k0 = 100 | 49.9 relative, GpH7-A5/GpH7-B3/GpL16-k0 = 100 |  |  | 
B7 |  |  | 97.2 % of control | 134 % of control | 0.73 ratio
B8 | 105 relative, GpH7-A5/GpH7-B3/GpL16-k0 = 100 | 65.7 relative, GpH7-A5/GpH7-B3/GpL16-k0 = 100 |  |  | 
B9 | 95.2 relative, GpH7-A5/GpH7-B3/GpL16-k0 = 100 | 17.8 relative, GpH7-A5/GpH7-B3/GpL16-k0 = 100 |  |  | 
B10 |  |  | 61.3 % of control | 218 % of control | 0.28 ratio
B11 |  |  | 34.7 % of control | 192 % of control | 0.18 ratio
B12 |  |  | 50.8 % of control | 192 % of control | 0.26 ratio
B13 | 102 relative, GpH7-A5/GpH7-B3/GpL16-k0 = 100 | 52.6 relative, GpH7-A5/GpH7-B3/GpL16-k0 = 100 |  |  | 
B14 |  |  | 102 % of control | 379 % of control | 0.27 ratio
B15 |  |  | 25.1 % of control | 31.5 % of control | 0.8 ratio
B16 | 112 relative, GpH7-A5/GpH7-B3/GpL16-k0 = 100 | 86 relative, GpH7-A5/GpH7-B3/GpL16-k0 = 100 |  |  | 
B17 | 102 relative, GpH7-A5/GpH7-B3/GpL16-k0 = 100 | 44.8 relative, GpH7-A5/GpH7-B3/GpL16-k0 = 100 |  |  | 
B18 | 106 relative, GpH7-A5/GpH7-B3/GpL16-k0 = 100 | 38.5 relative, GpH7-A5/GpH7-B3/GpL16-k0 = 100 |  |  | 
B19 |  |  | 19.6 % of control | 37.9 % of control | 0.52 ratio
B20 |  |  | 21.2 % of control | 57.2 % of control | 0.37 ratio
B21 |  |  | 120 % of control | 243 % of control | 0.49 ratio
